Test [1] has as its target T1, human Siglec-15 V-set domain (human, UniProt Q6ZMC9 39-165).
T1 construct: range 39-165; Purified to a single 14 kDa band; Used as the analyte in SPR; also called hSiglec-15 (39-165) V-set domain; human Siglec-15 protein
T1 sequence (looked up): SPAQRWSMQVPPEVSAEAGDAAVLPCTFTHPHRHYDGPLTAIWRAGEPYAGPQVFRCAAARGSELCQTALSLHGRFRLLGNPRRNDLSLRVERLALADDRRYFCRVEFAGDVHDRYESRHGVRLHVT
Kind of test: SPR, Biacore T200; antibody captured via anti-human IgG on CM5 chip, antigen as analyte, 1:1 binding model. Here is the method:
(§1) As a running buffer, HBS-EP+ (10 mM HEPES pH 7.4, 0.15 M NaCl, 3 mM EDTA, 0.05% surfactant P20) was used. On the chip having the antibody bound thereto, a dilution series of an antigen solution (0.003 to 7 nM) was added at a flow rate of 90 μL/min for 233 seconds, and subsequently, the dissociation phase was monitored for 2000 to 3600 seconds. As a regeneration solution, 3 M MgCl₂ was added at a flow rate of 10 μL/min for 30 seconds. In the analysis of data, a 1:1 binding model of analysis software (Biacore T200 Evaluation software, version 1.0) was used, and an association rate constant (kon), a dissociation rate constant (koff), and a dissociation constant (KD; KD=koff/kon) were calculated.
For orientation: SPR reads the build-up and loss of mass on a sensor chip optically.

Test [2] has as its target T1, human Siglec-15 V-set domain. Nature of the test: SPR, Biacore T200; ratio of KD values against K3-1115. Here is the method: as §1

Changes are numbered by the printed parent chain. Names may count otherwise.

B1: K3-1115 antibody (antibody, human IgG2, kappa, V domains shown)
VH: EVQLVESGGGLVQPGGSLRLSCAASGFNFNDYFMNWVRQAPGKGLEWVAQIRNKIYTYATFYAASVKGRFTISRDNAKNSLYLQMNSLRAEDTAVYYCARSLTGGDYFDYWGQGTLVTVSS
VL: EILMTQSPATLSLSPGERATLSCRASQSVTISGYSFIHWYQQKPGQAPRLLIYRASNLASGIPARFSGSGSGTDFTLTISSLEPEDFALYYCQQSRKSPWTFGQGTKVEIKR
notes: Humanized form of the rat antibody #32A1; Full-length IgG made in FreeStyle 293F cells; Used as the control antibody; In SPR it was captured through an anti-human IgG antibody; also called h#32A1-H1-1/L2-15
Consider B1, for which the affinity in test [1], expressed as Kd, was 0.26 nM.

B2: K3-1115/T103E antibody (antibody, human IgG2, kappa, V domains shown)
VH: B1 VH with T103E
VL: B1 VL
notes: Full-length IgG made in FreeStyle 293F cells
As for B2, the “fold enhancement of affinity compared with K3-1115” value in test [2] was about 60 times. Also, in test [1], binding was characterised by a dissociation constant (Kd) of 0.0041 nM.

What is called Kd is the equilibrium constant for the complex coming apart. Lower therefore signals a tighter complex.
